Our source for the binding result and Kd values is US20180222952A1 (NEW YORK UNIVERSITY, published 2018).

What is called Kd is the constant that tells how readily two partners part at equilibrium.

T1: RFP-fused GBA (encoded by pDsRed-GBA) (UniProt P04062 40-536)
T1 construct: also called RFP fused GCase; GCase; not shown: RFP (DsRed) tag
T1 sequence (looked up): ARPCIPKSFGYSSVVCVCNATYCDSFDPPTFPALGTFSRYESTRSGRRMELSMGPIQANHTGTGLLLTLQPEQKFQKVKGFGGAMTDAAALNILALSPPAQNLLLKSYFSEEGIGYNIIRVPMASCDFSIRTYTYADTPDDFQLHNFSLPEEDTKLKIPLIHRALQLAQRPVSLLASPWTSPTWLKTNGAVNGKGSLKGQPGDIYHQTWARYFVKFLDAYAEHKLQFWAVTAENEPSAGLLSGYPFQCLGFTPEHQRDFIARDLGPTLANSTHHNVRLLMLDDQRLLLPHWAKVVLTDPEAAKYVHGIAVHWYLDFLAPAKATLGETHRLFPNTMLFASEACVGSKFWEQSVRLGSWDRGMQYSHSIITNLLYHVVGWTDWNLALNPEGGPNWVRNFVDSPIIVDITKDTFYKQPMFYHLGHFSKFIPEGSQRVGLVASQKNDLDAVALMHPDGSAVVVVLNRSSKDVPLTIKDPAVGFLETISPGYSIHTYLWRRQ

T2: Recombinant sortilin (R&D Systems Cat. No. 3154-ST-050) (UniProt Q99523 78-755, biotin-labeled in the solid phase binding assay of FIG. 11; unlabeled in SPR)
T2 construct: also called biotin-labeled Sortilin
T2 sequence (looked up): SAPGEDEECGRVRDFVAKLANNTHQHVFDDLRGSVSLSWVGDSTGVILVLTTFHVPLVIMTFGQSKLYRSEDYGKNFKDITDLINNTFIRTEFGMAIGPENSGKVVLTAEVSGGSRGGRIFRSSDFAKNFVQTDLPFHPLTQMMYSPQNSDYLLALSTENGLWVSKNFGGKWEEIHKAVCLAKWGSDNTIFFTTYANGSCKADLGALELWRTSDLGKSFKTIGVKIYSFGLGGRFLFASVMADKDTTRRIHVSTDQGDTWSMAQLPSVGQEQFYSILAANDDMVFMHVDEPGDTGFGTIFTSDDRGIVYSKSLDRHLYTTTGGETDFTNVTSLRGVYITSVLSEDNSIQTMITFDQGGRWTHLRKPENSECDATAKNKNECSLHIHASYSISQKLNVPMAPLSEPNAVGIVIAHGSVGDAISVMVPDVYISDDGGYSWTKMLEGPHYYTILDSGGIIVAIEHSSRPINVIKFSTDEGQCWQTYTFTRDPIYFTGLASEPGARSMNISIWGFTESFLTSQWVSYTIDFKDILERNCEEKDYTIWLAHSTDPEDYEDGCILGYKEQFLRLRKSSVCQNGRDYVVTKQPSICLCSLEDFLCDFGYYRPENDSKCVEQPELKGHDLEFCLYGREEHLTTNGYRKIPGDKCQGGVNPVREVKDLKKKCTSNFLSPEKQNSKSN

B1: GFP fused Pcgin/ND7 deletion mutant lacking aa523-534 (other)
chain: EKEVVSAQPATFLARSPHVGVKDVECGRDNRQGWACCPYRQGVCCADRRHCCPAGFRCAARGTKCLRREAPRWDAPLRDPALRQLL
notes: not shown: GFP tag
B2: Recombinant His-tag PGRN protein (full length progranulin) (ligand)
chain: TRCPDGQFCPVACCLDPGGASYSCCRPLLDKWPTTLSRHLGGPCQVDAHCSAGHSCIFTVSGTSSCCPFPEAVACGDGHHCCPRGFHCSADGRSCFQRSGNNSVGAIQCPDSQFECPDFSTCCVMVDGSWGCCPMPQASCCEDRVHCCPHGAFCDLVHTRCITPTGTHPLAKKLPAQRTNRAVALSSSVMCPDARSRCPDGSTCCELPSGKYGCCPMPNATCCSDHLHCCPQDTVCDLIQSKCLSKENATTDLLTKLPAHTVGDVKCDMEVSCPDGYTCCRLQSGAWGCCPFTQAVCCEDHIHCCPAGFTCDTQKGTCEQGPHQVPWMEKAPAHLSLPDPQALKRDVPCDNVSSCPSSDTCCQLTSGEWGCCPIPEAVCCSDHQHCCPQGYTCVAEGQCQRGSEIVAGLEKMPARRASLSHPRDIGCDQHTSCPVGQTCCPSLGGSWACCQLPHAVCCEDRQHCCPAGYTCNVKARSCEKEVVSAQPATFLARSPHVGVKDVECGEGHFCHDNQTCCRDNRQGWACCPYRQGVCCADRRHCCPAGFRCAARGTKCLRREAPRWDAPLRDPALRQLL
notes: also called rPGRN; His-tagged PGRN; not shown: His tag
B3: GFP fused Pcgin/ND7 deletion mutant lacking aa535-539 (RDNRQ) (other)
chain: EKEVVSAQPATFLARSPHVGVKDVECGEGHFCHDNQTCCGWACCPYRQGVCCADRRHCCPAGFRCAARGTKCLRREAPRWDAPLRDPALRQLL
notes: also called ΔRDNRQ; ΔDNRQ; not shown: GFP tag
B4: Recombinant Pcgin, His-tagged, expressed in bacteria (other)
chain: EKEVVSAQPATFLARSPHVGVKDVECGEGHFCHDNQTCCRDNRQGWACCPYRQGVCCADRRHCCPAGFRCAARGTKCLRREAPRWDAPLRDPALRQLL
notes: also called ND7; PGRN ND7 fragment; not shown: His tag
B5: Recombinant LIMP2 (lysosomal integral membrane protein 2; R&D Systems Cat. No. 1966-LM-050) (receptor, UniProt Q14108 27-432, looked up)
chain: RVFQKAVDQSIEKKIVLRNGTEAFDSWEKPPLPVYTQFYFFNVTNPEEILRGETPRVEEVGPYTYRELRNKANIQFGDNGTTISAVSNKAYVFERDQSVGDPKIDLIRTLNIPVLTVIEWSQVHFLREIIEAMLKAYQQKLFVTHTVDELLWGYKDEILSLIHVFRPDISPYFGLFYEKNGTNDGDYVFLTGEDSYLNFTKIVEWNGKTSLDWWITDKCNMINGTDGDSFHPLITKDEVLYVFPSDFCRSVYITFSDYESVQGLPAFRYKVPAEILANTSDNAGFCIPEGNCLGSGVLNVSICKNGAPIIMSFPHFYQADERFVSAIEGMHPNQEDHETFVDINPLTGIILKAAKRFQINIYVKKLDDFVETGDIRTMVFPVMYLNESVHIDKETASRLKSMINTT
modifications: biotin-labeled (EZ-Link Sulfo-NHS-LC-Biotin)
notes: also called biotin-labeled LIMP2
B6: Recombinant GBA (glucocerebrosidase; R&D Systems Cat. No. 7410-GH-010) (enzyme, UniProt P04062 40-536, looked up)
chain: T1 sequence (looked up)
modifications: biotin-labeled (EZ-Link Sulfo-NHS-LC-Biotin) in the solid phase binding assays; unlabeled in SPR
notes: also called GCase; biotin-labeled GBA

Experiment [1] has as its target T1, RFP-fused GBA (encoded by pDsRed-GBA). Kind of experiment: co-IP from co-transfected 293T cells: IP anti-GFP, IB anti-RFP. The source says:
(§1) FIG. 8 depicts that Pcgin/ND7 fragment of PGRN has binding motifs for GCase and HSP70. (A) Scheme of Pcgin amino acid structure and its deletion mutants. (B) Co-IP assays for examining the binding of Pcgin and its mutants to GCase and HSP70. 293T cells were transfected with plasmids encoding either GFP fused Pcgin or its mutants, together with plasmids encoding RFP fused GCase and HSP70, and the protein complexes were immunoprecipitated with GFP antibody and probed with RFP or HSP70 antibodies respectively. […] The result is representative of three independent experiments. (C) Structure and sequence of Pcgin/ND7 fragment of PGRN. […] Sequence of Pcgin (SEQ ID NO:4) is shown in the bottom panel. Linker regions and Gm E are highlighted in green and red, respectively. Binding sites of GCase, HSP70, and Sortilin are indicated.

Experiment [2] has as its target T2, Recombinant sortilin (R&D Systems Cat. …). In words: SPR, SensiQ Pioneer, sortilin immobilised, PGRN injected (OneStep). Background: Surface plasmon resonance follows binding to a sensor surface in real time, without labels.
Experiment [3] concerns the target HSP70 expressed from a plasmid in transfected 293T cells (UniProt P0DMV8 1-641). In words: co-IP from co-transfected 293T cells: IP anti-GFP, IB anti-HSP70.
From the text: as §1

Experiment [4] concerns the target B6. In words: solid phase binding, Pcgin coated, biotin-labeled GCase, ELISA-based detection. The method, then: (§2) Pcgin was coated on a 96-well plate and incubated with biotin-labeled GCase, HSP70, and Sortilin (serving as a positive control) respectively. The direct binding was detected by ELISA-based method.
(§3) Pcgin was then expressed in bacteria and purified as a His-tagged protein. The purity was examined by Coomassie Blue staining and confirmed by Western blotting with His probe (FIG. 10). […] Although Pcgin retained GCase and HSP70 binding activity of PGRN, it lacked PGRN's oncogenic activity, including PGRN-activated oncogenic signaling and cell proliferation (data not shown).

The target of experiment [5] is T2, Recombinant sortilin (R&D Systems Cat. …). In words: solid phase binding, Pcgin coated, biotin-labeled sortilin (positive control), ELISA-based detection. How it is done:
as §2, §3
On the technique in general: An ELISA detects its analyte on a solid surface through an enzyme-linked reagent.

The target of experiment [6] is B2. In words: solid phase binding, PGRN coated, biotin-labeled LIMP2. How it is done:
Solid phase binding: 0.1, 1, 2, and 5 μg/ml PGRN proteins were coated in 96-wells with triplicate wells in PBS for overnight. The plate was washed with 0.1% tween/PBS five times and then blocked with 2% BSA/PBS solution. Two μg BSA, LIMP2 and GBA protein were labeled with biotin followed the protocol of EZ-Link Sulfo-NHS-LC-Biotin and Biotinylation Kits (Thermo Scientific). Biotin-labeled LIMP2, GBA or BSA were added in the plate and incubate for 2 hours. Wash with 0.1% tween/PBS, and coated with streptavidin-HRP (1:2000 dilution) solution for 1 hour. After washing add t h e substrate and stop the reaction with […] H₂SO₄. Read result at UV 450 nm in plate reader.

Experiment [7] concerns the target B2. In words: SPR, SensiQ Pioneer, GBA immobilised, PGRN injected (OneStep). The method, then:
Surface Plasmon Resonance (SPR): All SPR experiments were done by SensiQ Technologies Inc. (Oklahoma City, Okla.) by using SensiQ Pioneer at a controlled analysis temperature of 25° C., and samples in the instrument sample racks were maintained at 18° C. The running buffer throughout the immobilization and the assay consisted of 10 mM HEPES, 150 mM NaCl, 0.005% Tween 20. Buffer pH was adjusted to pH 7.4, 6.5, 6.0 or 5.5 for individual runs, and for each pH the running buffer was used to prepare PGRN samples and sucrose diffusion standards.
The assay of PGRN was performed with a total of five buffer blank injections and two replicates of 200 nM PGRN, all of which were given a 1 hour dissociation time. The OneStep™ injection was used for this assay to determine kinetic rate constants and the equilibrium dissociation constant from a single gradient inject. Two injections of 3% sucrose in running buffer were performed to serve as a diffusion standard.
Data was analyzed using the QDat Analysis Software (SensiQ Technologies and BioLogic Software). All data were double referenced to a reference channel (channel 2) and buffer blanks. The average signal of the buffer blanks was used to subtract injection artifacts. Referenced SPR data from the analysis channels were model fit to ascertain ka, kd, and KD for the interactions.

Chain of HSP70 expressed from a plasmid in transfected 293T cells (P0DMV8 whole entry): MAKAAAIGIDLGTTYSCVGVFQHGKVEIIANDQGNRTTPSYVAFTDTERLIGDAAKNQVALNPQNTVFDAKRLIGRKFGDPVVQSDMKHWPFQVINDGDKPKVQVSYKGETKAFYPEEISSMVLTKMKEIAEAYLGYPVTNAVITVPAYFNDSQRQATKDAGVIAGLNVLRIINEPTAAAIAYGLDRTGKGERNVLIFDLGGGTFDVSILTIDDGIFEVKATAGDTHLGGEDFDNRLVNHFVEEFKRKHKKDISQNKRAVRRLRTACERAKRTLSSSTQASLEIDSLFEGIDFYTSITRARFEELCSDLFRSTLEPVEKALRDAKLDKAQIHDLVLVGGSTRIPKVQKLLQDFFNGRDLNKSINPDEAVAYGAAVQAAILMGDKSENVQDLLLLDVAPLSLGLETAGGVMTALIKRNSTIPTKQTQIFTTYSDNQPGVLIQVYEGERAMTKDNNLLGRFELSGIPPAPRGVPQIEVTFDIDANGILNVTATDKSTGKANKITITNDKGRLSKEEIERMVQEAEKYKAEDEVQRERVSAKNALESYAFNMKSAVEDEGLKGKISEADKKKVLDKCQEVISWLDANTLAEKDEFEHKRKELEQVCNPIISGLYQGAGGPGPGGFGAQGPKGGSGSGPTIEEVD

For the molecule B1, in experiment [1], the binding result is “no binding”.
With B2, the Kd in experiment [2] worked out at 3.67 nM.
Consider B3, for which the binding result in experiment [3] is “no binding”.
B4: the binding result in experiment [4] and in experiment [5] was “binds” in each case.
Regarding B5, the binding result in experiment [6] is “no binding”.
On to B6, for which the Kd in experiment [7] is 0.71 nM.
